Holding throughout (assay): BLI
Test [1] addresses p52Shc lacking the PTB domain (p52ShcΔPTB), terminally biotinylated.
Test [2] has as its target T1, p52Shc lacking SH2 domain (p52ShcΔSH2), terminally biotinylated (biotin, terminal (end not stated)).
T1 chain: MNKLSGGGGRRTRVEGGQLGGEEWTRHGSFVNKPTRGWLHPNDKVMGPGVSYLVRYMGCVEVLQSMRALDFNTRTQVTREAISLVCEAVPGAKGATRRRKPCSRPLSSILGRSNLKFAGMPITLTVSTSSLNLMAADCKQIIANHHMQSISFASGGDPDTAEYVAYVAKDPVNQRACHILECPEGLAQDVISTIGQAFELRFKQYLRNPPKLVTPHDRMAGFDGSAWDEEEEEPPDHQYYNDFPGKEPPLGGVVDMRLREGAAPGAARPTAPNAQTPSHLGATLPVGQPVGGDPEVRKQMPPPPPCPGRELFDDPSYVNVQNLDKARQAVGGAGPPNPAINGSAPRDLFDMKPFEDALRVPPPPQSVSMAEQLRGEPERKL

The target of test [3] is T2, full-length p52Shc, terminally biotinylated (UniProt P29353-2 1-473, biotin, terminal (end not stated)).
T2 sequence (looked up): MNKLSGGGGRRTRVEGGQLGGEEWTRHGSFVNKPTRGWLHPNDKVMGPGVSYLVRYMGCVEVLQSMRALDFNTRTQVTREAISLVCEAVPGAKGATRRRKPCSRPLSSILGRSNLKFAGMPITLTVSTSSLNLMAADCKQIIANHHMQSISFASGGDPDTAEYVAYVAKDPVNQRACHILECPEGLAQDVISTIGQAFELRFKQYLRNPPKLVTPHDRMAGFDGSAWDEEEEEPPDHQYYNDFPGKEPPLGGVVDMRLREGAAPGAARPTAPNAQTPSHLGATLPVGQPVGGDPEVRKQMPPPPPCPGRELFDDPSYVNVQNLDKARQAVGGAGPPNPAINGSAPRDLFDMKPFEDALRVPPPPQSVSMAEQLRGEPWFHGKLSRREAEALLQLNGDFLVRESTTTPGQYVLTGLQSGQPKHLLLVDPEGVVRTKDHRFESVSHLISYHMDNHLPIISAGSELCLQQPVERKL

In test [4] the target is T3, non-phosphorylated full size p52Shc (treated with alkaline phosphatase) (UniProt P29353-2 1-473, biotin, terminal (end not stated)).
T3 sequence (looked up): T2 sequence (looked up)

Molecule “p47^phox::His (not biotinylated) (from UniProt P14598 1-390) (natural protein)” gave a fold weaker affinity than full-length p52Shc in test [1] of 10 fold.

B1: p47^phox::His (not biotinylated) (natural protein, UniProt P14598 1-390, looked up)
chain: MGDTFIRHIALLGFEKRFVPSQHYVYMFLVKWQDLSEKVVYRRFTEIYEFHKTLKEMFPIEAGAINPENRIIPHLPAPKWFDGQRAAENRQGTLTEYCSTLMSLPTKISRCPHLLDFFKVRPDDLKLPTDNQTKKPETYLMPKDGKSTATDITGPIILQTYRAIANYEKTSGSEMALSTGDVVEVVEKSESGWWFCQMKAKRGWIPASFLEPLDSPDETEDPEPNYAGEPYVAIKAYTAVEGDEVSLLEGEAVEVIHKLLDGWWVIRKDDVTGYFPSMYLQKSGQDVSQAQRQIKRGAPPRRSSIRNAHSIHQRSRKRLSQDAYRRNSVRFLQQRRRQARPGPQSPGSPLEEERQTQRSKPQPAVPPRPSADLILNRCSESTKRKLASAV
In turn, B1 yielded a half-maximal effective concentration (EC50) in test [2] above 50000 nM. The results for the Kd in test [3] and in test [4] were 200 nM and 780 nM, respectively.

The record behind these values is paper PMC7478166 (Hepatology (Baltimore, Md.), 2020).
